Assay results taken from US20190077860A1 (EISAI R AND D MANAGEMENT, published 2019).
Positions count from the first letter of the chain named.

T1: human EphA6 extracellular region-SEAP-His protein (human, UniProt Q9UF33 23-550)
T1 construct: extracellular domain; also called hEphA6-SEAP-His
T1 sequence (looked up): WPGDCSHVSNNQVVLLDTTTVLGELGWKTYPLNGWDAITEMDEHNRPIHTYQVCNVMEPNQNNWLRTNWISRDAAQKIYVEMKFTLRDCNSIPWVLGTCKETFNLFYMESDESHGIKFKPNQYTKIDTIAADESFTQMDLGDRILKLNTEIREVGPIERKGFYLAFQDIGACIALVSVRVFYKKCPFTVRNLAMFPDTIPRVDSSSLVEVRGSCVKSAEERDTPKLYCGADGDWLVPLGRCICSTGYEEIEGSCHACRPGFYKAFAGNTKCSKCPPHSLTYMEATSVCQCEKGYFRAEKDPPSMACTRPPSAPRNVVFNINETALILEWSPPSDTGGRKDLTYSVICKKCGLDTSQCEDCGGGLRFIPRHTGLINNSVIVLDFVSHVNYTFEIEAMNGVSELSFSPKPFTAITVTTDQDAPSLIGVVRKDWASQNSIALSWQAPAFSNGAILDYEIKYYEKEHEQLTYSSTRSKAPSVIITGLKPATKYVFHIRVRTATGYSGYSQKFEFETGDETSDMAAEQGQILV

T2: human EphB4 extracellular region-SEAP-His protein (human, UniProt P54760 16-539)
T2 construct: extracellular domain; also called hEphB4-SEAP-His
T2 sequence (looked up): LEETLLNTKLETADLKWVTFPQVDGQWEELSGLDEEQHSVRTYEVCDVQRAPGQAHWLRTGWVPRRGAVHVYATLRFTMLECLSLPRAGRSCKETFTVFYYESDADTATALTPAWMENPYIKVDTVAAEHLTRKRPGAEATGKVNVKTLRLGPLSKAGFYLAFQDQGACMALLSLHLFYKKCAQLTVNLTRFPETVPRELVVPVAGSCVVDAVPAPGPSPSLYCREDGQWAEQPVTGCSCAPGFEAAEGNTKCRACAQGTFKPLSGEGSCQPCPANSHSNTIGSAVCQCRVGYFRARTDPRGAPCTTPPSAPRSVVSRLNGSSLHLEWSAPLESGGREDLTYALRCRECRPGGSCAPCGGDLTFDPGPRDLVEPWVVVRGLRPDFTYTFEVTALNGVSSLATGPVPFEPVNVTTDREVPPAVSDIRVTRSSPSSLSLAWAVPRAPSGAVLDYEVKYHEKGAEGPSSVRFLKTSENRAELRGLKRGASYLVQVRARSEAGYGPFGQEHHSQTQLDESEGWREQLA

T3: human EphB1 extracellular region-SEAP-His protein (human, UniProt P54762 18-540)
T3 construct: extracellular domain; also called hEphB1-SEAP-His
T3 sequence (looked up): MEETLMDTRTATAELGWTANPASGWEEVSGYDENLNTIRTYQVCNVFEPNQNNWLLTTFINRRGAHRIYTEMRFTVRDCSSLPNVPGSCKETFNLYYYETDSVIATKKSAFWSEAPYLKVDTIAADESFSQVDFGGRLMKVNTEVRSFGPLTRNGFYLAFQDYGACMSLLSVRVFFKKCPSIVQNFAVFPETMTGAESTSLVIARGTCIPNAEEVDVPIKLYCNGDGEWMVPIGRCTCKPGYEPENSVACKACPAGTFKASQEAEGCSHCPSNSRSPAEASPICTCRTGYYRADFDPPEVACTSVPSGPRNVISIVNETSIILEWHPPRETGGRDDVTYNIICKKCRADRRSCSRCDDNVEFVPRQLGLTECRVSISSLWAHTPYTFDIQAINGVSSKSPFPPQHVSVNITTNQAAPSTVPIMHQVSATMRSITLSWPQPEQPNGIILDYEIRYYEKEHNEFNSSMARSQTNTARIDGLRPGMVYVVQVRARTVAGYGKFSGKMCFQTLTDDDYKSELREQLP

T4: human EphB3 extracellular region-SEAP-His protein (human, UniProt P54753 34-559)
T4 construct: extracellular domain; also called hEphB3-SEAP-His
T4 sequence (looked up): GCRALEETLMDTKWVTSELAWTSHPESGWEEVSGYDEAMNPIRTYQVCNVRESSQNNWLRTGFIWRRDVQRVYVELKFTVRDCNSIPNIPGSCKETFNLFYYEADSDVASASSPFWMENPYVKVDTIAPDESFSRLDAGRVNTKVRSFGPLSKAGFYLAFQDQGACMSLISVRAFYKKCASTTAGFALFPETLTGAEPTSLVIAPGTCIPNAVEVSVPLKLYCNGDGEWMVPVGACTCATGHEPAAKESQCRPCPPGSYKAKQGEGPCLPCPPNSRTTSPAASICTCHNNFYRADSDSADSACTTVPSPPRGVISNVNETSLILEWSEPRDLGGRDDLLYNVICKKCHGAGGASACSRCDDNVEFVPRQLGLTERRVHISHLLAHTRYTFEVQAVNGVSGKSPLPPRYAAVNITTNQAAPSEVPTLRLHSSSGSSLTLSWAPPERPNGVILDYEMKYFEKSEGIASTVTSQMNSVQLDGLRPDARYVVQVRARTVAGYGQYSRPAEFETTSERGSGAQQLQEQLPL

B1: humanized antibody No. 91 (antibody, human IgG1, kappa)
heavy: QVQLVQSGSELKKPGASVKVSCKASGYTFTDYSMHWVRQAPGQGLKWMGWINTETGEPTYADDFKGRFVFSLDTSVSTAYLQISSLKAEDTAVYYCARIPLYYYGSRYWYFDVWGQGTTVTVSSASTKGPSVFPLAPSSKSTSGGTAALGCLVKDYFPEPVTVSWNSGALTSGVHTFPAVLQSSGLYSLSSVVTVPSSSLGTQTYICNVNHKPSNTKVDKRVEPKSCDKTHTCPPCPAPPAAAPSVFLFPPKPKDTLMISRTPEVTCVVVDVSHEDPEVQFNWYVDGVEVHNAKTKPREEQFNSTFRVVSVLTVVHQDWLNGKEYKCKVSNKGLPAPIEKTISKTKGQPREPQVYTLPPSREEMTKNQVSLTCLVKGFYPSDIAVEWESNGQPENNYKTTPPMLDSDGSFFLYSKLTVDKSRWQQGNVFSCSVMHEALHNHYTQKSLSLSPG
light: DIQMTQSPSSLSASVGDRVTITCRASENIYRNLAWYQQKPGKAPQLLLYAATNLADGVPSRFSGSGSGTDYTLTISSLQPEDFATYYCQHFWGTPWTFGQGTKVEIKRTVAAPSVFIFPPSDEQLKSGTASVVCLLNNFYPREAKVQWKVDNALQSGNSQESVTEQDSKDSTYSLSSTLTLSKADYEKHKVYACEVTHQGLSSPVTKSFNRGEC
notes: human Ig kappa; also called L1-6/HK2
B2: humanized antibody No. 92 (antibody, human IgG1, kappa)
heavy: B1 heavy with V2I
light: B1 light
notes: human Ig kappa; also called L1-6/HK4
B3: humanized antibody No. 140 (antibody, human IgG2)
heavy: QVQLVQSGSELKKPGASVKVSCKASGYTFTDYSMHWVRQAPGQGLKWMGWINTETGEPTYAQGFTGRFVFSLDTSVSTAYLQISSLKAEDTAVYYCARIPLYYYGSRYWYFDVWGQGTTVTVSSASTKGPSVFPLAPSSRSTSESTAALGCLVKDYFPEPVTVSWNSGALTSGVHTFPAVLQSSGLYSLSSVVTVPSSNFGTQTYTCNVDHKPSNTKVDKTVERKSCVECPPCPAPPAAAPSVFLFPPKPKDTLMISRTPEVTCVVVDVSHEDPEVQFNWYVDGVEVHNAKTKPREEQFNSTFRVVSVLTVVHQDWLNGKEYKCKVSNKGLPAPIEKTISKTKGQPREPQVYTLPPSREEMTKNQVSLTCLVKGFYPSDIAVEWESNGQPENNYKTTPPMLDSDGSFFLYSKLTVDKSRWQQGNVFSCSVMHEALHNHYTQKSLSLSPG
light: B1 light with Q45K, L48V
notes: human Ig kappa; also called L1-4/HA2
B4: humanized antibody No. 138 (antibody, human IgG2)
heavy: B3 heavy with V2I
light: B1 light with Q45K, L48V
notes: human Ig kappa; also called L1-4/HA4
B5: humanized antibody No. 139 (antibody, human IgG2)
heavy: B3 heavy with K46E
light: B1 light with Q45K, L48V
notes: human Ig kappa; also called L1-4/HA1
B6: humanized antibody No. 141 (antibody, human IgG2)
heavy: B3 heavy with K46E, Q62D, G63D, T65K
light: B1 light with Q45K, L48V
notes: human Ig kappa; also called L1-4/HK1

Legend:
Test in all cases: ELISA
[1] = molecular target: T1, human EphA6 extracellular …
[2] = molecular target: T5, human EphA2 extracellular region-SEAP-His protein (human, UniProt P29317 24-537)
T5 construct: extracellular domain; also called hEphA2-SEAP-His
T5 sequence (P29317 24-537): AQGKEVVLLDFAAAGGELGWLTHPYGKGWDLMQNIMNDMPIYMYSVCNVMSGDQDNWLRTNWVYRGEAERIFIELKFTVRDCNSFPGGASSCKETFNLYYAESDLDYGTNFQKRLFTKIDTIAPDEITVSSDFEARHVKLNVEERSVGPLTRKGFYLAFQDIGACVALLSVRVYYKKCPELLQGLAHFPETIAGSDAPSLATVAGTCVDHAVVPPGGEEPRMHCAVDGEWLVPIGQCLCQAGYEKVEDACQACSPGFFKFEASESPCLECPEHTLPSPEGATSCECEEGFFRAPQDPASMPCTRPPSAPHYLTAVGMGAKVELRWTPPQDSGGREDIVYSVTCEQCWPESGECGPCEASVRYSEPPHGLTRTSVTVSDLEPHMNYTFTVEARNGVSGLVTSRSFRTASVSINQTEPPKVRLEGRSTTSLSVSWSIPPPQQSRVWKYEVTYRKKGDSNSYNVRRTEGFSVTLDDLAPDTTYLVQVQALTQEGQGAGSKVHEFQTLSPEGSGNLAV

[3] = molecular target: T2, human EphB4 extracellular …
[4] = molecular target: T3, human EphB1 extracellular …
[5] = molecular target: T6, human EphA4 extracellular region-SEAP-His protein (human, UniProt P54764 20-547)
T6 construct: also called hEphA4-SEAP-His
T6 sequence (P54764 20-547): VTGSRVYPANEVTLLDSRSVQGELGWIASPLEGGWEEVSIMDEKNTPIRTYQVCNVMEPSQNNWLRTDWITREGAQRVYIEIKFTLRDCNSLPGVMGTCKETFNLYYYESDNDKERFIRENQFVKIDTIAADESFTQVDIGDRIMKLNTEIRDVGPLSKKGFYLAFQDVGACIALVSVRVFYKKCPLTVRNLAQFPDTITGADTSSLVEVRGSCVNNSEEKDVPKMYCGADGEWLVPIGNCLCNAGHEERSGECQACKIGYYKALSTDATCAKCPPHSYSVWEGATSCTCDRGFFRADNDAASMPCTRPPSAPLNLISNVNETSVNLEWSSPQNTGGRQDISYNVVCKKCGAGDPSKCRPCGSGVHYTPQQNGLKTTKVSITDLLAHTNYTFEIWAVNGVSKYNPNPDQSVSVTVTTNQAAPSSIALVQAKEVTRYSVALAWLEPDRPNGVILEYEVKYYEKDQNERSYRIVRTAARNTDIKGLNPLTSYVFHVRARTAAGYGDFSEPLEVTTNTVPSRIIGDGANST

[6] = molecular target: T4, human EphB3 extracellular …

Binder	A450 as % of hEphA4-SEAP-His [1]	A450 as % of hEphA4-SEAP-His [2]	A450 as % of hEphA4-SEAP-His [3]	A450 as % of hEphA4-SEAP-His [4]	A450 as % of hEphA4-SEAP-His [5]	A450 as % of hEphA4-SEAP-His [6]
B1	8.8%	6.1%	6.2%	6.6%	100%	7%
B2	9.6%	6.9%	6.6%	6.9%	100%	6.9%
B3	10.8%	5.3%	5.4%	5.3%	100%	5.4%
B4	10.2%	5%	5.2%	5.1%	100%	5.1%
B5	10%	5.9%	5.7%	5.5%	100%	5.6%
B6	9%	5.2%	5.4%	5.4%	100%	5.2%
